In publication PMC3950718, “The RNA helicase RHAU (DHX36) suppresses expression of the transcription factor PITX1”:

T1: RHAU (full length) (UniProt Q9H2U1 1-1008)
T1 sequence: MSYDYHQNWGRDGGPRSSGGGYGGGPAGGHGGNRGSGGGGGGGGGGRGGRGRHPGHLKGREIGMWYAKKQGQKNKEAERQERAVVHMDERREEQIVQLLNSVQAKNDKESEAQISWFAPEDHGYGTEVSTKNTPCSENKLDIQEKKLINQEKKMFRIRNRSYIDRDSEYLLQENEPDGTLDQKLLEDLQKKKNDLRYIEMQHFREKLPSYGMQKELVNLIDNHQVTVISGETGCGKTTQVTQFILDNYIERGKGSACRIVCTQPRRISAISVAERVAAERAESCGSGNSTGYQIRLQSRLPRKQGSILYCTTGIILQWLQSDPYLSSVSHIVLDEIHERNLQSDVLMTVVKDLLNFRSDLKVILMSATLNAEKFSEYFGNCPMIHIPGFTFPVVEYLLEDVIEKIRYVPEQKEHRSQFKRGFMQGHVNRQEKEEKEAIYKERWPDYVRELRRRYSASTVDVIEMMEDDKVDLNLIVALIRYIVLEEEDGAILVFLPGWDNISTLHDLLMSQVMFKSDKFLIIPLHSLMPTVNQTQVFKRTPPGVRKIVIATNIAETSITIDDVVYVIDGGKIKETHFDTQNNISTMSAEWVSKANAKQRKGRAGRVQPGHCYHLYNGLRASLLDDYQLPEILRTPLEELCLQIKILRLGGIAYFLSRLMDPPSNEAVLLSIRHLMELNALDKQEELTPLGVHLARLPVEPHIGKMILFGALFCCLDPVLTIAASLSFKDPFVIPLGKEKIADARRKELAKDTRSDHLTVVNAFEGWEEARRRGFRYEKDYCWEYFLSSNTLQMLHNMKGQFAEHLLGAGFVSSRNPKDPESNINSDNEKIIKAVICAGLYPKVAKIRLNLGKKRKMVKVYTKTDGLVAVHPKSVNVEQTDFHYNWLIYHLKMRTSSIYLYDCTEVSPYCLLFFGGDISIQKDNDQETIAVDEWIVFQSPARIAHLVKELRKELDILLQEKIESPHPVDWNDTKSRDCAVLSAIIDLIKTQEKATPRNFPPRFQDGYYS

T2: RHAU53-105 (UniProt Q9H2U1 53-105)
T2 sequence: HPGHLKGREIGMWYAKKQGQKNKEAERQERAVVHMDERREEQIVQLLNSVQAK

T3: 6xHis-RHAU53-105 (UniProt Q9H2U1 53-105)
T3 sequence: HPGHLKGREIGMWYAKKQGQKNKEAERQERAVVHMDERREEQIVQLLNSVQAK


Key:
RHAU (full length) = biological target: T1, RHAU (full length); experiment: EMSA; 150 nM RNA, 0-750 nM protein; RNA in 50 mM Tris pH 7.6, 100 mM KCl; EMSA as in ref 12/36 (150 nM RNA, 0-750 nM protein); pull-down binding buffer 50 mM Tris-acetate pH 7.8, 100 mM KCl, 10 mM NaCl, 3 mM MgCl2, 70 mM glycine, 10% glycerol, room temperature; details: protein: recombinant, label: 5' biotin
RHAU53-105 [1] = biological target: T2, RHAU53-105; experiment: EMSA; 150 nM RNA, 0-750 nM protein; qualitatively lower affinity than full length; RNA in 50 mM Tris pH 7.6, 100 mM KCl; EMSA as in ref 12/36 (150 nM RNA, 0-750 nM protein); pull-down binding buffer 50 mM Tris-acetate pH 7.8, 100 mM KCl, 10 mM NaCl, 3 mM MgCl2, 70 mM glycine, 10% glycerol, room temperature; details: protein: recombinant; label: 5' biotin; G-quadruplex
6xHis-RHAU53-105 [2] = biological target: T3, 6xHis-RHAU53-105; experiment: EMSA; 150 nM RNA; affinity similar to untagged; RNA in 50 mM Tris pH 7.6, 100 mM KCl; EMSA as in ref 12/36 (150 nM RNA, 0-750 nM protein); pull-down binding buffer 50 mM Tris-acetate pH 7.8, 100 mM KCl, 10 mM NaCl, 3 mM MgCl2, 70 mM glycine, 10% glycerol, room temperature; details: protein: recombinant; tags: 6xHis; label: 5' biotin; G-quadruplex
RHAU53-105 [3] = biological target: T2, RHAU53-105; experiment: EMSA; 150 nM RNA, 0-750 nM protein; RNA in 50 mM Tris pH 7.6, 100 mM KCl; EMSA as in ref 12/36 (150 nM RNA, 0-750 nM protein); pull-down binding buffer 50 mM Tris-acetate pH 7.8, 100 mM KCl, 10 mM NaCl, 3 mM MgCl2, 70 mM glycine, 10% glycerol, room temperature; details: protein: recombinant; label: 5' biotin; no quadruplex (no NMM staining)
6xHis-RHAU53-105 [4] = biological target: T3, 6xHis-RHAU53-105; experiment: EMSA; RNA in 50 mM Tris pH 7.6, 100 mM KCl; EMSA as in ref 12/36 (150 nM RNA, 0-750 nM protein); pull-down binding buffer 50 mM Tris-acetate pH 7.8, 100 mM KCl, 10 mM NaCl, 3 mM MgCl2, 70 mM glycine, 10% glycerol, room temperature; details: protein: recombinant; tags: 6xHis; label: 5' biotin; no quadruplex (no NMM staining)

| Binder | binding result (RHAU (full length); G-quadruplex) | binding result (RHAU53-105 [1]) | binding result (6xHis-RHAU53-105 [2]) | binding result (RHAU53-105 [3]) | binding result (RHAU (full length); no quadruplex (no NMM staining)) | binding result (6xHis-RHAU53-105 [4]) |
| --- | --- | --- | --- | --- | --- | --- |
| GAGCGGGGAAGGGCGCGGGCGCGGGCGCGG (structured_RNA) [PITX1 Q1] | binds | binds | binds | – | – | – |
| AGCGGGCAGUGCGGGCCUGGCGGGAGGUGGGGGAGG (structured_RNA) [PITX1 Q3] | binds | binds | – | – | – | – |
| GAGCGCGGAAGCGCGCGCGCGCGCGCGCGG (ssRNA) [PITX1 Q1Mut] | – | – | – | no binding | no binding | no binding |
| GUUGGGGCGGGCGUUGGGUUUGGGGGGACG (structured_RNA) [PITX1 Q2] | binds | binds | – | – | – | – |
